Experimental data: article PMC11268888
pKd: −log10 of the molar value.

Experiments:
Experiment in all cases: SPR; […]; HBS-EP (10 mM HEPES pH 7.4, 150 mM NaCl, 3 mM EDTA, 0.005% Surfactant P20); […]
[1] = molecular target: MeV-H (measles virus hemagglutinin), vaccine strain (measles virus)
[2] = molecular target: ectodomain (head domain) of CDV-H, 5VD wild-type strain (canine distemper virus (5VD wild-type strain))
[3] = molecular target: soluble head domain of CDV-H (canine distemper virus hemagglutinin), Kyoto Biken vaccine strain, made in HEK293T cells (canine distemper virus (Kyoto Biken vaccine strain))

Sequence of ectodomain of human Nectin-4 (residues 1-333) (Q96NY8 32-333): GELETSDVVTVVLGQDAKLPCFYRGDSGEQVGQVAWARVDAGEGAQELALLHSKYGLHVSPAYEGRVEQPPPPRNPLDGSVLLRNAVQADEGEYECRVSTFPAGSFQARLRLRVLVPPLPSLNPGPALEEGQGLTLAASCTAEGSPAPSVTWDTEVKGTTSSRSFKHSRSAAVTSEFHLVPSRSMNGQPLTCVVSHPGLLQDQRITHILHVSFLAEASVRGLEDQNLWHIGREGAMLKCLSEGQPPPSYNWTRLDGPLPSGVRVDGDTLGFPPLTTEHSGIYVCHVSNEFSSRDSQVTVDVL

| Substance | Ka [1] [M⁻¹] | pKd [1] | Ka [2] [M⁻¹] | pKd [2] | Ka [3] [M⁻¹] | pKd [3] |
| --- | --- | --- | --- | --- | --- | --- |
| ectodomain of dog Nectin-4 (residues 1-332) (receptor) | 950000 | 5.98 | 396000 | 5.60 | 1.06e+06 | 6.03 |
| ectodomain of human Nectin-4 (residues 1-333) (from UniProt Q96NY8 32-333) (receptor) | 1.5e+06 | 6.18 | 397000 | 6.02 | 1.05e+06 | 5.60 |
